Measurements taken from US20150361450.
Like-named read-outs stand apart in the source and are kept apart here.

Legend:
[1] = tested on: KARS2 (mature mitochondrial lysyl-tRNA synthetase, lacking predicted mitochondrial targeting presequence) (Homo sapiens); settings: CITED apparent Kd, printed as 250+/240; cited from earlier work
[2] = tested on: preKARS2 (precursor of human mitochondrial lysyl-tRNA synthetase) (Homo sapiens), Q15046-2; settings: CITED targeting sequence said to completely abolish RNA binding; cited from earlier work
[3] = tested on: preMSK1p (precursor of yeast mitochondrial lysyl-tRNA synthetase) (Saccharomyces cerevisiae); settings: CITED previously evaluated apparent Kd, printed as 280+/260; cited from earlier work
[4] = tested on: preKARS2 (precursor of human mitochondrial lysyl-tRNA synthetase) (Homo sapiens), Q15046-2; assay: EMSA; settings: apparent Kd, error printed as 300+/250 (likely +/-50); 20 mM Tris-HCl pH 7.5, 150 mM NaCl, 10 mM MgCl2, 30 C

Chain of preKARS2 (precursor of human mitochondrial lysyl-tRNA synthetase) (Homo sapiens), Q15046-2 (Q15046 other isoform, or with tags, fused parts or gaps): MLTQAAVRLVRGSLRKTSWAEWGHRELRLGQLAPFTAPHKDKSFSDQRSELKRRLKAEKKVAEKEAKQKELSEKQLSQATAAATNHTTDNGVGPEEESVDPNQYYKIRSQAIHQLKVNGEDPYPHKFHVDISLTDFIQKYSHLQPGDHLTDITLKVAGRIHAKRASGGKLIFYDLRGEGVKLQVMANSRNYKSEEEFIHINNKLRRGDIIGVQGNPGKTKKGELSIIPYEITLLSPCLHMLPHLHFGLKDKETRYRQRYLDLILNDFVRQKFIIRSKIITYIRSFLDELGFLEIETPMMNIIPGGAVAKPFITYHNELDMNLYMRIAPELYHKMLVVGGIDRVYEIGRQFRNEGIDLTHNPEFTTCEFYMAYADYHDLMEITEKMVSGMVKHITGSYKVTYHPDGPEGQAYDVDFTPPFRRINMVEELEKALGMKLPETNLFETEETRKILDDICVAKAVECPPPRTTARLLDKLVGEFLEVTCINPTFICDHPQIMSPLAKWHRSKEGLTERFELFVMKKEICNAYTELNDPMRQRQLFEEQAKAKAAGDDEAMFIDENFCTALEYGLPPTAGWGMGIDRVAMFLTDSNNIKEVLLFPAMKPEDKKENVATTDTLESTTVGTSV

Row | Substance | Kd [1] [nM] | Kd [2] [nM] | Kd [3] [nM] | Kd [4] [nM]
1 | human cytosolic tRNALys3 | 250 | 100000 |  | 
2 | tRK1 (yeast tRNALys CUU, T7 transcript) |  |  | 280 | 300
